Assays:
mice = test: Intestinal insulin delivery, blood glucose; assay type: in vivo
[1] = Procedure: Following ten hours of fasting, mice were orally gavaged with PBS (for control) or nanoparticle suspensions (100 mg/kg unless otherwise specified). Two hours later, their initial blood sugar was measured, and the animals were placed under anesthesia. Their intestines were surgically exposed, and insulin was injected at the predetermined dose (1 unit per kg body weight unless otherwise specified) into the duodenum. The mice were closed and secured with tissue adhesive, then kept under anesthesia as their blood sugar levels were monitored each hour for five hours. For comparison to the current standard of insulin delivery, subcutaneous injections were given to additional mice, into the scruff on their necks. To determine specific insulin concentrations, blood samples were collected and separated via centrifugation. The serum was subjected to ELISA analysis for human insulin (LifeTechnologies®, Carlsbad, CA) per the instructions of the kit manufacturer.

Substance: insulin
- blood glucose response (mice; 1 U/kg subcutaneous): pronounced, but brief response
- blood glucose, response to insulin dose (mice; increasing intestinal insulin dose, constant particle administration of 100 mg/kg): increased magnitude and duration of hypoglycemia
- blood insulin concentration ([1]; intestinal insulin along with nanoparticles): slight elevations in blood insulin that persisted for at least four hours
- return of blood insulin to normal levels ([1]; subcutaneous injection): shortly after two hours
- time of spike in blood insulin concentration ([1]; subcutaneous injection): ≤ 30 min

Reference: patent publication US20250144035A1, “Method of Increasing Epithelial Permeability Using Nanoparticles” (Carnegie Mellon University, priority 2017, published 2025)
